B1: TPR t1 (parent)
chain: GACCAAUCUGCCCUCAGAGCUCGAGAACAUCUUCGGAUGCAGAGGAGGCAGGCUUCGGUGGCGCGAUAGCGCCAACGUCCUCAACCUCCAAUGCAUCCCACCACAUGAUGAUGCCUGAAGAGCCUUGGUUUUUUG

We go through 42 variants from the RNAGym collection of RNA variant scans (doi:10.1073/pnas.2313332121).

This data set covers variants of B1. Put plainly: polymerase ribozyme fitness, log enrichment relative to wild type (log ratio); higher = more active; in vitro selection for triplet polymerase activity. The method, boiled down: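 Input and output libraries were sequenced on Illumina after a single in vitro selection round, run in triplicate on PCR-built, transcribed mutant libraries of each subunit of a heterodimeric triplet polymerase ribozyme. Selection annealed libraries to a biotinylated primer, the partner subunit and triplets, incubated them frozen at −7 °C, then gel-excised extended constructs for streptavidin-bead capture and RT-PCR. Genotypes with ≥10 input reads and ≥1 read per output were kept. Fitness is the logarithm, taken in base 2, of genotype enrichment divided by wild-type enrichment, using inverse-variance-weighted replicate averages.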
GACCAAUCUGCCCUCAGAGCUCGAGAACAUCUUCGGAUGCAGAGGAGGCAGGCUCCUGUGGCGCGCUAGCGCCAACGUCCUCAACCUCCAAUGCAUCCCACCACAUGAUGAUGCCUGAAGAGGCUUGGUUUUUUG: the “polymerase ribozyme fitness (log ratio)” value was -0.734.

As to GACCAAUCUGCCCUCAGAGCUCGAGAACAUCUUCGGAUGCAGAGGAGGCAGGCUUUGGUGGCGCGAUAGCGCCAACGUCCUCAACCUCCAAUGCAUCCCACCACAUGAUGAUGCCUGAAGAUCCUUGGUUUUUUG, the “polymerase ribozyme fitness (log ratio)” value was -0.129.

For the variant GACCAAUGUGCCCUCAGAGCUCGAGAACAUCUUCGGAUGCAUAGAAGGCAGGCUUUGGUGGCGCGAUAGCGCCAACGUCCUCAACCUCCAAUGCAUCCCACCACAUGAUGAUGCCUGAAGAGCCUUGGUUUUUUG, the “polymerase ribozyme fitness (log ratio)” value was -0.791.

Consider GACCAAUCUGCACUCAGAGCUCGAGAACAUCUUCGGAUGCAGAGGAGGCAGGCUUCGGUGGCGCGAUAGCGCCAACGUCUUCAUCCUCUAAUGCAUCCCACCACAUGAUGAUGCCUGAGGAGACUUGGUUUUUUG, for which the “polymerase ribozyme fitness (log ratio)” value stood at 0.231.

Regarding GACCAAUCUUCACUCAGAGCUCGAGAACAUCUUCGGAUGCAGAGGAGGCAGGCUUAGGUGGCGCGAUAGCGACAACGUCCUAAACCUCCAAUGCAUCCCACCACAUGAUGAUGCCUGAAGAGCCUUGGUUUUUUG, the “polymerase ribozyme fitness (log ratio)” value is -1.27.

In the case of GACCAAUCUGCCCUCAGAGCUCGAGAACAUCUUCGGAUGCAGAGGAGUCAGGGUUCGGUGGUGCGAUAGCGCAAACGUCCUCAACCUCCAAUGCAUCCCACCACAUGAUGAUGCCUGAAGAGCCUUGGUUUAUUG, the “polymerase ribozyme fitness (log ratio)” value is -0.636.

Consider GGCCAAUCUGCCCUCAGAGCUCGAGAGCAUCUUCGGAUGCAGAGGAGGCAGUCUUCGGUGGCCCGAUAGCGCCAACGUCCUCAACCCCCAAUGCAUCCCACCACAUGAUGAUGCCUGAAGAGCCUUGGUUUUUUG, for which the “polymerase ribozyme fitness (log ratio)” value is -2.6.

Consider GACCAAUCUGCCCUCAGAGCUUGAGUUCAUCUUCGGAUGCCGAGGAGGCAGGCUUCGGUGGCGCGAUAGCCCCAACGUCCUGAACCUCCAAUGCAUCCCACCACAUGAUGCUGCCUGUAGAGCCUUCGUUUUUUG, for which the “polymerase ribozyme fitness (log ratio)” value was -6.27.

GACCAAUCUGCCCUCAGAGCUCGAGAACAUCUUCGGAUGCAGAGGAGGCAGGCUUCGGUGGCGCGAUAGCUCCAACGUCCUCAACCUCCAAUGCAUCCCACCACAUGAUGAUGCCUGAAGAGCCUUGGUUUUGUG: the “polymerase ribozyme fitness (log ratio)” value was 0.225.

As to GACCAAUCUGCCCUCAGAGCUCGAGAACAUCUUCGGAUGCAGAUGAGGCAGGCUUCGGUGGCGCGAUAGCGCCAACGUCCUCAACCUCCAAUGCAUCCCACCACAUGAAGAUGCCUGAAGAGCCUUGGUUUUUUG, the “polymerase ribozyme fitness (log ratio)” value was -5.43.

For GACCAAUCUGCCCUCAGAGCUCGAGAACGUCUUCGGAUGCAGAGGCGGCGGGCCUCGGUGGCGCGAUAGCGCCAACGUCCUCAACCUCCAAUGCAUCCCACCACAUGAUGAUGCCUGAAUAGACUUGGCUUUUUG, the “polymerase ribozyme fitness (log ratio)” value is -4.1.

Consider GACCAAUCUGCCCUCAGAGCUCGAGAACAUCUUCGGAUGCAGAGGAUGCAGGCUUCGGUGGCGCGAUAGCGCCAACGUCCUCAACCUCCAAUGCAUCCCACCACAUGAUGAUCCCUGAAGAGCCUUGGUUUUUUG, for which the “polymerase ribozyme fitness (log ratio)” value was -2.7.

Regarding GACCAAUCUGCCCUCAGAGCUCGAGAACAUCUUCGGAUGCAGAGGAGGCUGGCUUCGGUGGCGAGAUAGCGCCAACGUCCUCAACCUCCAAUGCAUCCCCCCACAUGAUGGUGCCUGAAGAGCCUUGGUUUUUUG, the “polymerase ribozyme fitness (log ratio)” value was -6.26.

As for GACCAAUCUGCCCUCAGAGCUCGAGAACAUCUUCGGAUGUAGAGGAGGCAGGCUUCGGUGGCCCGAUAGCGCCAACGUCCUCAACCUCCAAUGCAUCCCACCACAUGAUGAUGCAUGAAGAGCCUUGGUUUUUUU, the “polymerase ribozyme fitness (log ratio)” value was -1.95.

Take GACCAAUCUGCCCUCAGAGCUCGAGAACAUCUUCGGAUGCAUAGGAGGCAGGCUUCGGUGGCGCGAUAGCACCAACGUCCUCAACUUCCAAUGCAAACCACCACAUGAUGAUGCCGGAAGAGCCUUGGUUUUUUG: the “polymerase ribozyme fitness (log ratio)” value is -6.66.

As for GACCAAUCUGCCCUCAGAGCUCGAGAACAUCUUCGGAUGCACAGGAGGCAGGCUUCGGUGGCGCGAUAGCGCCAAAGACCUCAACCUCCAAUGCAUCCCACCACAUGAUGAUGCCUGAAGAGCCUUGGUUUUUUG, the “polymerase ribozyme fitness (log ratio)” value is -2.31.

As for GACCAAUCUGCCGUCAGAGCUCGAGAACAUCUUCGGAUCCAGAGGAGGCAGGCUUCGGUGGCGCGAUAGCGCCAACGUCCUCAACCUCCAAUGCAUCCCACCACAUGAUGAUCCCUGAAGAGCCUUGGUUUUUUG, the “polymerase ribozyme fitness (log ratio)” value was -3.84.

Turning to GACCACUCUGCCCUCAGAGCUCGAGAACAUCUUCGGAUGCAGAGGAGCCAGGCUUCGGUGGCGCGAUAGCGUCAACGUCCUCAACCUCCAAUGCAUCCCACCACAAGAUGAUGCCUGAAGAGCCUUGGUUUUUUG, the “polymerase ribozyme fitness (log ratio)” value was -1.51.

In the case of GACCAAUCUGCCCUCAGAGCUCGAGAACAUCUUCGUAUGCAGAGGAGGCAGGCUUCGGUGGCGCGAUAGCGCCGACGUCCUCAACCUCCAAUGCAUCCCACCACUUGAUGAUGCCUGAAGAGCCUUGGUUUUUUG, the “polymerase ribozyme fitness (log ratio)” value is -3.55.

On to GACCAAUCUGCCCUCAGAGCUCGAGAACAUCUUCGGAUGUAGAGGAGGCAGGCUUCGGUGGCGCGAUAGCGCCAAGGUCCUCAACCUCCAAUGCAUCCCACCACAUGAUGAUGCCUGAACAGCCUUGGUUUUUUG, for which the “polymerase ribozyme fitness (log ratio)” value turned out to be 0.524.

For GACCAAUCUGGCCUCAGAGCUCGAGAACAUCUUCGGAUGCAGAGGAGGCAGGCUUCGGUGGCGCGAUAGCGCCAACGUCCUCAACCUCCAAUGCAUCCCACCACAUGAUGAUGCCUGAAGAACGUUGGUUUUUUG, the “polymerase ribozyme fitness (log ratio)” value was found to be 1.83.

In the case of GACCAAUCUGCCCUCAGAGCUUGAGAACAUGUUCGGAUGCAGAGGAGGCUGGCUUCGGUGGCGCGAUAGCGGCAACGUCCUAAACCUCCAAUGCGUCCCACCACAUCAUGAUGCCUGAAGAGCCUUGGUUUUUUG, the “polymerase ribozyme fitness (log ratio)” value is -5.28.

On to GACCAAUGUGCCCUCAGAGCUCGAGAACAUCUUCGGAUGCAGAGGAGGCAGGCUUCGGUGGCGCGAUAGCGCCAACGUCCUCAACCUCCAAUGCAUCCCACCACAUGAUGAUGCCUGAAGAGCCUUGGUUUAUUG, for which the “polymerase ribozyme fitness (log ratio)” value was 0.53.

Consider GACCAAUGUGCCCUCAGAGCUCGAGAACAUCUUAGGAUGUAGAGGAGGCAGGCUACGGUGGCGCGAUAUCGCCAACGUUCUCAACCUCCAAUGCAUCUCACCACAUUAUGUUGCCUCAAGAGCCUUGGUUUUUUG, for which the “polymerase ribozyme fitness (log ratio)” value is -6.38.

With GACAAAUGUGCCCUCAGCGCUCCAGAACAUCUUCGGAUGCAGAGGAGGCAGGCUUCGGUGGCGCGAUAGCGCCAACGUCCUCAACCUCCAAUGCAUCCCACCACAUGAUGAGGCCAGAAGAGCCUUGGUUUUUUG, the “polymerase ribozyme fitness (log ratio)” value is -5.14.

Regarding GACCAAUCUGCCCUCAGAGCUCGAGAACAUCUUCGGAUGCAGAGGAGGCUGGCUUCAGUGGCGCGAUAGCGCCAACGUCCUCAACCUCCAAUGCAUCCCACCACAUGAUGAUGCCUGAAGAGCCUUGGUCUUUUG, the “polymerase ribozyme fitness (log ratio)” value is -1.53.

On to GACCAAUCUGCCCUCAGAGCGCGAGAACAUCUUCGGAUGCAGAGGAAGCAGGCUUCGGUGGCGCGAUAGCGCCAACGUCCUCAACCUCCAAUGCAUCCCACCACAUGAUGAUGCCUGAAGAGCCUUGGUUUUUUG, for which the “polymerase ribozyme fitness (log ratio)” value was -0.934.

With GACCAAUCUGCCCUCAGAGCUCGAGAACAUCUUCGGAUGCAGAGGAGCCAGGGUUCGGUGGCGCGAUAGCGCCAACGUCCUCAACCUCCAAUGCAUCCCACCACAUGAUGAUGCCUGAAGAGCCUUGGUUUUUUG, the “polymerase ribozyme fitness (log ratio)” value is -0.405.

For GACCAAUCUGCCCUCAGAGCUCGAGAACAUCUUCGGAUGCAGAGGAAGCAGGCUUCGGUGGCGCGAUAGCGCCAACGUCCUCAACCUCCAAUGCAACCCACCACAUGAUGAUGCCUGAAGAGCCUUGGUUUUUUG, the “polymerase ribozyme fitness (log ratio)” value was -1.93.

In the case of GACCAAUCUGCCCUCAGAGCUCGAGAACAUCUUCGCAUGCAGAGGAGGCAGACUUCGGUGGCGCGAUAGCGCCAACGUCCUCAACCUCCAAUGCAUCCCACCACAUGAUGAUGCCUGAAGAGCCUUGGUUUUUUG, the “polymerase ribozyme fitness (log ratio)” value was -1.54.

GACCAAUCUGCCCUCAGAGCUCGGGAACAUCUUCGGAUGCAGAGGAGGCAGGCUUCGGUGGCGUGAUAGCGCCAACGUCCUCAACCUCCAAUGCAUCCCACCACAUGAUGAUGCCUGAAGAGCCUUGGUUUUUUG: the “polymerase ribozyme fitness (log ratio)” value was -1.79.

With GUCCAAUCUGCCCUCAGAGCUCGAGAACAUCUUCGGAUGCAGAGGAGGCUGGCUUCGGUGGCGCGAUAGCGCCAACGUCCUCAACCUCCAAUGCCUCCCACCACAUGAUGAUGCCUGAAGAGCAAUGGUUUUUUG, the “polymerase ribozyme fitness (log ratio)” value was -2.49.

Take GACCAAUCUGCCCUCAGAGCUCGAGAACAUCUUCGGAUGGAGACGAGGCAGGCUUCGGUGGCGCGAUAGCGCCUACGUCCUCAACCUCCAAUGCAUCCCACCACAUGAUGAUGCCUGAAGAGCCUUGGUUUUUUG: the “polymerase ribozyme fitness (log ratio)” value is -1.5.

For the variant GACCAAUCUGCCCUCAGAGCUAGAGAACAUCUUCGGAUGCAGAGGAGGCAGGCUUCGGUGGCGCGAUAGCGUCAACGUCCUCAACCUCCAAUGCAUCCCACCACAUGAUGAUGCCUGAAGAGCCUUGGUUUUUUG, the “polymerase ribozyme fitness (log ratio)” value was -4.98.

Turning to GACCAAUCUGCGCUCAGAGCUCGAGAACAUCUUCGGAUGCAGAGGAGGCAGGCUAGGGUGGCACGAUAGCGCCAACGUCCCCAACCUCCAAUGCAUCCCACCACAUGAUGAUGCCUGAAGAGCCUUGGUUUUUUG, the “polymerase ribozyme fitness (log ratio)” value is -2.01.

GACCAAUCUGCCCUCAGAGCUCGAGAACAUCUUCGGAUGCAGAGGAGGCAGGCUUCGGUGGCGCGAUAGAGCCAACGUCCUCAAACUCCAAUGCAUCCCACCACAUGAUGAUGCCUGAAGAGCCUUGGUUUUUUG: the “polymerase ribozyme fitness (log ratio)” value was -3.25.

For GACCAAUCUGCCCUCAGAGCUCGAGAACAUCUUCGGAUGCACAGGAGGCAGGCUUCGGUGCCGCGAUAGCGCCAACGUCCUCAACCUCCAAUGCAUCCCACCACAUGAUGAUGCCUGAAGAGCCUUGGUUUUUUG, the “polymerase ribozyme fitness (log ratio)” value was -4.07.

On to GACCAAUCUGCCCUCAGAGCUCGAGAACAUCUUCGGAUGCAGAGGAGGCAGGCUUCCGUGGCGCGAUAGCGCCAACGUCCUCAACCUCCAAUUCAUCCCACCACAUGAUGUUCAUUGAAGAGCCAUGGUUUUUUG, for which the “polymerase ribozyme fitness (log ratio)” value was -7.73.

GACCAAUCUGCCCUCAGAUCUCGAGAACAUCUUCGGCUGCAGAGGAGGCAGGCUUCGGUGGCGCGAUAGCGCCAACGUCCUCAACCUCCAAUGCAUCCCACCACAUGAUGAUGCCUGAAGAGCCUUGGUUUUUUG: the “polymerase ribozyme fitness (log ratio)” value was -3.64.

Consider GACCAAUUUGCCCUCAGAGCUCGAGAACAUCUUCGGAUGCAGAGGCGGCAGGCUUCGGUGGCGCGAUAGCGCCAACGUCCUCAACCUCCAAUGCAUCCCACCACAUGAUGAUGCCUGAACAGCCUUGGUUUUUUG, for which the “polymerase ribozyme fitness (log ratio)” value was 1.49.

With GACCAAUCUGCCCUCAGAGCUCGAGAACAUCUUCGGAUGCAGAGGAGGUAGGCUUCGGUGGCGCGAUAGCGCCAACGUCCUCAACCUCCAAUGUAUCCCACCACAUGAUGUUGCCUGAAGAGCCUUGGUUUUUUG, the “polymerase ribozyme fitness (log ratio)” value was -5.05.

Consider GACCAAUCUGCCCUGAUAGCUCGAGAACAUCUUCGGAUGCAGAGGAGGCAGGCUUCGGUGGCGCGAUAGCGCCAACGUCCUCAACAUCCAAUGCAUCCCACCACAUGAUGAUGCCUGAAGAGCCUUGGUUUUUUG, for which the “polymerase ribozyme fitness (log ratio)” value was -5.4.
